Assay results published in US20210122826A1 (MIT, published 2021).

Target: T1, human CD161 (human, UniProt Q12918 1-225)
T1 construct: UniProt Q12918; also called hCD161; KLRB1
Assay: blocking assay by flow cytometry: 500 nM biCLEC2D on Jurkat hCD161+ cells with 1, 10 or 100 nM antibody, SA-AF647; blocked ligand biCLEC2D; control 500 nM biCLEC2D on Jurkat WT

B1: KM12.3.2 (antibody, V domains shown)
VH: EVQLVESGGGLVQPGGSLRLSCAASGFTFSSYAMSWIRQAPGKGLEWVSAISGSGGSIYYADSVKGRFTISRDNSKNTLYLQMDSLRAEDTAVYYCARGYSDSYFYGPYYTFDYWGQGTLVTVSS
VL: not shown
B1: binds.
